Data: publication PMC5683014 (Acta Crystallographica. Section D, Structural Biology, 2017)

Legend:
Assay in all cases: BLI; BLItz (ForteBio); biotinylated Fab loaded on streptavidin biosensors (rehydrated in PBS with 0.1% BSA); lysozymes passed on and off at a range of concentrations; global fits of kinetics (BlitzPro 1.2.1.3)
HyHEL10 Fab = biological target: HyHEL10 Fab
[1] = biological target: T1, Pekin duck egg lysozyme isoform II (Anas platyrhynchos, Pekin duck, …, UniProt P00705, strain); conditions: both partners purified
T1 construct: Isoform II of C-type lysozyme of Pekin duck (Anas platyrhynchos), 129 positions; entry P00705 (Kondo DL-2) differs at residues 66 and 103; Second of three peaks eluted from CM resin; Observed intact mass 14460.98 Da; No crystal structure; also called DEL-II; DL-2 (Kondo); source: purified from Pekin duck egg white (CM ion exchange, gel filtration)

[2] = biological target: T2, Pekin duck egg lysozyme isoform I (Anas platyrhynchos, Pekin duck, …, strain); conditions: both partners purified
T2 construct: Allelic isoform I of C-type lysozyme of Pekin duck (Anas platyrhynchos), 129 positions; Asp66 and Asn103; First of three peaks eluted from CM resin; Observed intact mass 14391.88 Da; also called DEL-I; DL-1 (Kondo); source: purified from Pekin duck egg white (CM ion exchange, gel filtration)
T2 chain: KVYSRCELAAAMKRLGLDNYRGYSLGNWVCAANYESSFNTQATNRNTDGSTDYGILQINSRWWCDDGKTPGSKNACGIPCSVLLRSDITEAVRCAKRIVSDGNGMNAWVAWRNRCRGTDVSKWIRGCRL

For “Pekin duck egg lysozyme isoform III (enzyme)”, the Kd (HyHEL10 Fab) was greater than 1000 nM.

B1: HyHEL10 Fab (Fab, V domains shown)
VH: DVQLQESGPSLVKPSQTLSLTCSVTGDSITSDYWSWIRKFPGNRLEYMGYVSYSGSTYYNPSLKSRISITRDTSKNQYYLDLNSVTTEDTATYYCANWDGDYWGQGTLVTVSA
VL: DIVLTQSPATLSVTPGNSVSLSCRASQSIGNNLHWYQQKSHESPRLLIKYASQSISGIPSRFSGSGSGTDFTLSINSVETEDFGMYFCQQSNSWPYTFGGGTKLEIK
notes: HyHEL10 Fab heavy chain; HyHEL10 kappa light chain; Cloned into pCEP4; also called HyHEL10 Fab arm; source: Expi293, transiently expressed, purified from supernatant (HisTrap FF Crude)
Molecule B1 has a Kd [1] of 34 nM and a Kd [2] of 40 nM.
